According to the RNAGym collection of RNA variant scans (doi:10.7554/elife.80360):

B1: Hammerhead Ribozyme (parent)
chain: ACCGGAUGUGCUUUCCGGUCUGAUGAGUCCGUGAGGACGAAACAG

Variants of: B1
Assay: self-cleavage, relative activity (ratio to wild type); higher = more cleavage; co-transcriptional

Variant | self-cleavage
ACCGGAUGUGUUUUCCGGUCUGAUGAGUCCGCGAGGACGAAACAG [C11U U32C] | 0.964
ACCGGAUGUGCUUUACGGUCUGAUGAGUCCGUGAGGACGAGACAG [C15A A41G] | 0.325
ACCGGAUGUGCUUUCCGAUCUGAUGAGUCUGUGAGGACGAAACAG [G18A C30U] | 0.783
ACCGGAUGUGCUUUCCGGUCUGAUGAGUCCUUGAGGACGAGACAG [G31U A41G] | 0.364
ACCGGAUGUGCUUUCCGGUGUGAUGAGUCCGUGAGGACGAAACUG [C20G A44U] | 0.309
ACCGGAUGUGCUUUCCGGUCUGACGAGUCCGUGAGGACGAAACGG [U24C A44G] | 1.18
ACCGGGUGUGCUUUCCGGUCUGAUGAGUCCGUGAGGACGACACAG [A6G A41C] | 0.299
UCCGGAUGUGCUUUCCGGUCUGAUGAGUCCGUGAGAACGAAACAG [A1U G36A] | 0.537
ACCGGUUGUGCUUUCCGGUCUGAUGAGUCCUUGAGGACGAAACAG [A6U G31U] | 0.889
ACCGGAUGUGCUUUCCGGUCUGGUUAGUCCGUGAGGACGAAACAG [A23G G25U] | 0.321
ACCGGAUGUGCUUUCCGGUCUGAUGAGUCCGUGAGCUCGAAACAG [G36C A37U] | 0.29
ACCUGAUGUGCUUUCCGGACUGAUGAGUCCGUGAGGACGAAACAG [G4U U19A] | 0.304
ACCGGAUGUGCUUUGCGGUCUGAUGAGUCUGUGAGGACGAAACAG [C15G C30U] | 0.722
ACUGGAUGUGCUUUCCGGUCUGAUUAGUCCGUGAGGACGAAACAG [C3U G25U] | 0.345
ACCGGAUGUGCUUGCCGGUCUGAUGAGUCCGUGAGGCCGAAACAG [U14G A37C] | 0.777
ACCGGAUGUGAUUUCCGGUCUGAUGUGUCCGUGAGGACGAAACAG [C11A A26U] | 1.03
ACCGGAUGUGCUCUCCGGUCUGAUGAGUCCGUGAGGACGAAAAAG [U13C C43A] | 0.35
ACCGGAUGUGUUUUCCGGUCUGAUGAGUCCGUGAGGACGAUACAG [C11U A41U] | 0.278
ACCGGAUGUGCUGGCCGGUCUGAUGAGUCCGUGAGGACGAAACAG [U13G U14G] | 0.796

Variant | self-cleavage
ACCGGAUGUGCUUUCCGGUCUGAUGAGUCCCUGAGGACGAAACAG [G31C] | 0.96
ACCGGAUGUGCUUUCCGGUCUGAUGAGUCCGUGAGGUCGACACAG [A37U A41C] | 0.34
ACCGGAUGUGCUUUCCGGUCUGAUGAGUCCGUGAGGACAAAGCAG [G39A A42G] | 0.319
ACCUGAUGUGCUCUCCGGUCUGAUGAGUCCGUGAGGACGAAACAG [G4U U13C] | 0.634
ACCGGAUGUGCUUUCCGGUCUGAUGCGUCCGUGAGGACGAGACAG [A26C A41G] | 0.307
ACCGGAUGUGCUCUCCGGUCUGAUGAGUCCGUGAGGACGGAACAG [U13C A40G] | 0.465
ACCGGAUGUGCUUUCCAGUCUGAUGAGUCCGUGAGGACGUAACAG [G17A A40U] | 0.354
ACCGUAUGUGCUUUCCGGUCUGACGAGUCCGUGAGGACGAAACAG [G5U U24C] | 0.922
ACCGGGUGUGCUUUCCGGUCUGAUGAGUCCGUGAGGACGAAACAC [A6G G45C] | 0.433
ACCGGAUGUGCUUUCCGAUCUGAUGAGUCCGUGAGGACGAAACUG [G18A A44U] | 0.433
AUCGGAUGUCCUUUCCGGUCUGAUGAGUCCGUGAGGACGAAACAG [C2U G10C] | 1.5
ACGGGAUGUGCUUUCCGGUCUGAUGUGUCCGUGAGGACGAAACAG [C3G A26U] | 0.361
ACCGGAUGUGCUUUCGGGUCUGAUGAGUCCGUGAGGACGAGACAG [C16G A41G] | 0.398
ACCGGAUGUGCUUUCCGGUUUGUUGAGUCCGUGAGGACGAAACAG [C20U A23U] | 0.279
ACUGGAUGUGCUUUCCGGUCUGAUGAGUCCGUGAGGAGGAAACAG [C3U C38G] | 0.745
ACCGGAAGUGCUUUCCGGUCUGAUUAGUCCGUGAGGACGAAACAG [U7A G25U] | 0.281
ACCGGAUGUGCUUUCCGGUCUGAUGAGUCCGUGAGGUCGAAACAC [A37U G45C] | 0.363
ACCGGAUGAGCUUUCCAGUCUGAUGAGUCCGUGAGGACGAAACAG [U9A G17A] | 0.539
ACCGGAUGAGCUUUCCGGUCUGAUGAGUCCGUGAGGACGAAAAAG [U9A C43A] | 0.333

Variant | self-cleavage
ACCGGAUGUGCUUUCCGGUCUGAUGAGUCCGUGAGGAGGAUACAG [C38G A41U] | 0.316
ACCGGAUGCGCUUUCAGGUCUGAUGAGUCCGUGAGGACGAAACAG [U9C C16A] | 1.04
ACCGGAUGUGCAUUCCGGUCUGAUGAGUCCGUGAGGACGAAAAAG [U12A C43A] | 0.33
ACCGGAUGUGCUUUGCGGUCUGAUGAGGCCGUGAGGACGAAACAG [C15G U28G] | 0.384
ACCAGAUGUGCUUUCCGGUCUGAUGAGCCCGUGAGGACGAAACAG [G4A U28C] | 0.306
ACCGGAUGUGCUUUCCGGUCUGAUGAGUCCGUGAGGACCAAUCAG [G39C A42U] | 0.39
ACCGGAUGUGCUUUCCGGUCUGAUGAGUCCGUGAGGACCAACCAG [G39C A42C] | 0.355
ACCGGAUGUGCUUUCCGGUCUGAUGAGUCCGUGUGGACGAUACAG [A34U A41U] | 0.281
ACCGGAUGUGCUUUCCGGUCUGGUGAGUCCGUGAGUACGAAACAG [A23G G36U] | 0.403
ACCGGAUGUGCUUUCCGGUCUGAUGAUUCCGUAAGGACGAAACAG [G27U G33A] | 0.754
ACCGGAUGAGAUUUCCGGUCUGAUGAGUCCGUGAGGACGAAACAG [U9A C11A] | 1.19
ACCGGAAGUGCUUUCCGGUCUGAUGAGUCCGUGAGGACGAAACGG [U7A A44G] | 1.46
ACCGGAAGUGCUUUCCGGUCUGGUGAGUCCGUGAGGACGAAACAG [U7A A23G] | 0.308
UCCGGAUGUGCUUUCCGGUGUGAUGAGUCCGUGAGGACGAAACAG [A1U C20G] | 0.412
ACCGGAUGUGCUUUCCGGUCUUAUGAGUCCGUGAGGACGAUACAG [G22U A41U] | 0.353
ACCGGAUGUGCUCUCCGGUCUGAUGAGUCCGAGAGGACGAAACAG [U13C U32A] | 0.668
ACCGGAUGUGCUUUCCGGUCUGAUGACUCUGUGAGGACGAAACAG [G27C C30U] | 0.818
ACCGUAUGUGCUUUCCGGUCUGAUGAGUCCGUGAGGACGAAACAG [G5U] | 0.934
ACCGGAUGUGCUUUCCGGGCUGAUGAGUCCGUGAAGACGAAACAG [U19G G35A] | 0.282
